Reference: publication PMC11733253

Target: MRAS wild type, recombinant from E. coli (human) (UniProt O14807)
Assay: ITC

Substance: BRAF-RBD (from UniProt P15056 150-233) (domain or fragment)
- Kd: 8.3 µM
